Source: the nanobody polyreactivity screen of Harvey et al. (2022)

Experiment: yeast display, Sf9 membrane polyspecificity reagent, FACS + sequencing; frameworks hold sequencing errors
In short: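 Nanobodies came from a synthetic yeast display library in Saccharomyces cerevisiae BJ5465, induced with galactose for 36–48 hours and stained for 1 hour at 4 °C with 10% biotinylated, detergent-solubilized Sf9 membrane reagent. Cells were enriched on streptavidin microbeads and then FACS-sorted, with low and high (top ~1%) gates set on anti-HA fluorescence for expression and streptavidin fluorescence for reagent binding. Each polyreactivity label reflects the gate a clone came from. Genes were amplified by colony PCR, sequenced by MiSeq 2 × 250 and filtered by CDR length.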

Row | Sequence | polyreactivity (PSR sort gate)
1 | QVQLVESGGGLVQAGGSLRLSCAASGSTINFYAMGWYRQAPGKERELVAAIRVSSGSTYYADSVKGRFTISRDNAKNTVYLQMDSLKPEDTAVYYCAAYLKVRSPRDGYDYWGQGTQVTVSS | high polyreactivity
2 | QVQLVESGGGLVQAGVSLRLSCAASGRIFAVNAMGWYRQAPGKERELVASIRWSGGSTYYADSVKGRFTISRDYAKNTVYLQMNSLKPEETAVYYCAAVIYLWGQGTQVTVSS | high polyreactivity
3 | QVHLVESGGGLVQAGGSLRLSCAASGSTIYYNAMGRYRQAHGKERELVPRISRSGGSTYADSVKGRFTISRDNANNTVYLQMNSLKPEDTAVYYCNADPWWRFDYWGQGTQVTVSS | low polyreactivity
4 | QVQLVESGGGLVQAGGSLRLSCAASGRIFGIYAMGWYRQAPGKERELVASITGSSGSTNYADSVKGRFTISRDNAKNTVYLQMNSLKPDDTAVYYCAADIPSYYWWRAYDYWGQGTQVTVSS | low polyreactivity
5 | QVHHEETGGGLVQAGGSLRLSCSASGRTFVYYDMGWYRHATGKERQLVAAIDSSGSTYYADSVKGRFTISRDNAKNTVYLQMNSLKPEDSAVYYCGAGYWFFPYWYDYWGQGTQVTVSS | high polyreactivity
6 | QVQLVESGGGLVQAGGSLRLSCAASGFTLAFYGMGWYRQAPGKERELVAAISRSGGSTYYADSVKGRFTISRDNAKNTVYLQMNSLKPEDTAVYYCAAAFRAGAVYGYYWGQGTQVTVSS | high polyreactivity
7 | QFQLVESCGGLVQAGGSLRLSCAASGSIFYYYVMGWYRQAPGKEREFVAAISWRGDSTYYADSVKGRFTISRDNAKNTVYLQMNSLKPEDTAVYYCNADYPWSVVGYDYLGQGTQVTVSS | low polyreactivity
8 | QVQLVESGGGLVQAGGSLRLSCAASGFIFTTNAMGWYRQAPGKERELVAAITRSGGSTYADSVKGRFTISRDNAKNTVYLQMNSLKPEDTAVYYCNADWAGVYTSYEYDYWGQGTQVTVSS | low polyreactivity
9 | QVQLVESGGGLVQAGGSLRLSCAASGSTFGYNAMGWYRQAPGKERELVASITWSSGSTYYADSVKGRFTISRDNAKNTVYLQMNSLKPEDTAVYYCAADVEYWSYEFNYWGQGTQVTVSS | low polyreactivity
10 | QVQLVESGGGLVQAGGSLRLSCAASGSTFPYYAMGWYRQAPGKERELVATITTSGVSTYYADSVKGRFTISRDNAKNTVYLQMNSLKPEDTAVYYCAADPPGFTQYGYWGQGTQVTVSS | low polyreactivity
11 | QVQLVESGGGLVQAGGTLSLSCAASGFIFYRTARGWSRQAPGKDRELVAGISRVGSTYYADSVKGRFTISRDNAKNTVYLQMNSLKPEDTAVDYCAARSGYFYGYGYWGQGTQVTVSS | high polyreactivity
12 | QVQLVESGGGLVQAGGSLRLSCAASGSIFASNAMGWYRQAPGKEREFVAAIRYSAGITYYADSVKGRFTISRDNAKNTVYLQMNSLKPEDTAVYFCSAYGWVNRWYSRFDYWGQGTQVTVSS | high polyreactivity
13 | QVQLVESGGGLVQAGGSLRLSCAASRSIFDLYAMGWYRQAPGKEREFVAAITWRGSSTYYADSVKGRFTISRDNAKNNVYLQMNSLKPEDTAVYYCAATHNQVVARYAFIYWGQGTQVTVSS | high polyreactivity
14 | QVQLVESGGGLVQAGGSLRLSCAASGRIFYLYTMGWYRQAPGKEREFSRYYADSVKGRFTISRDNAKNTVYLQMNCLKPEDTAVYSCAAADHPPVWYGYWGQGTHVTVSS | low polyreactivity
15 | QVQLVESGGGLVQAGGSLRLSCAASGRILYYSVMGWYRPAPGKERELVAAISSGGDTNYADSVKGRFTISRDNAKNSVYLQMNSLKPEDTAVYYCARGVDGILWTSEYDYWGQGTQVTVSS | low polyreactivity
16 | QVQLVESGGGLVQAGGSLRLRCAASGLIFIFNAMGWYRQAPGKERELVAAIDTSDDSTYYADSVKGRFTISRDNAKNTVYLQMNSMKPEDTAVYYCAAEELSNYEYWGQGTQVTVSS | low polyreactivity
17 | QVQLVESGGGLVQAGGSLRLSCAASGGIFYLNAMGWYRQAPRKERELVAAITGTGGNTYYADSVKGRFTISRDNAKNTVYLQMNSLKPEDTAVYYCAAAAIGVGSGPFGIGWEEYYYWGLGTQVTVSS | low polyreactivity
18 | QVQLVESGGGLVQAGGSLRLSCAASGRILVYYAMGWYRQATGKERELVAAITASGASTYYADSVKGRFTISRDNAKKTVYLQMNSLKPEDTAVYYCKVLYPRKYWQVREYYWGQGTQVTVSS | high polyreactivity
19 | QVQLVESGGGLVQAGGSLRLSCAASGNIFESYGMGWYRHAPGKERELVATINTSSGSTYDADSVKGRFTISRDNAKNTVYLQMNSLKPEDTAVYYCAAEWYPYPWGYGYWGQGTQVTVSS | low polyreactivity
20 | QVQLVESGGGLVQAGGSLRLSCAASGRIFAWNAMGWYRQAPGTERELVARIRVSGGRTYYADSVKGRFTISRDNAKNTVYLQMNSLKPEDTAVDYCNAYLRSGSMDYWGQGTQVTVSS | high polyreactivity
21 | QVQLVESGGGLVQAGGSLRLSCAASGSTSQRYSMGWYRQAPAKEREVVAGITTSGGRTYYADSVKGRFTISRDNAKNTVYLQMNSLKPEDTAVYYCAARTQIWKYRGYYSWGQGTQVTVSS | high polyreactivity
22 | QVQLVESGGGLVQAGGSLRLSCAASGRTFTWNAMGWYRQAPGKERELVADITNNGGSTYYADSVKGRFTISRDNATNTVYLQMNSLKPEDTAVYYCDNRRNYWFSFDYWGQGTQVTVSS | low polyreactivity

Row | Sequence | polyreactivity (PSR sort gate)
23 | QVQLVESCGGLVQAGGSLRLSCAASGSTFSSYAMGWYSQAPGKERELVAAISSSGGTSTYADSVKGPFTISRDNAKNTVYLQMNSLKPEDTAVYYCNTDRFRRLYDYWGQGTQVTVSS | high polyreactivity
24 | QVQLVESGGGLVQAGGSLRLSCDASGRSFYPYSMGWYRQAPGKERELVAAIDWSDGSTYYADSVKGRFTISRDNAKNTFYLQMNSLKPEDTAVYYCSAEDYNYWSYDYWGQGTQVTVSS | low polyreactivity
25 | QVQLVESGGGLVQAGGSLRLSCAASGYIFPYNVMGWSRQAPGKERELVAAITWRVVRTYYADSVKGRFTISRDNAKNTVYLQMNSLKPEDTAVYYCAALSRQSGDYWGQGTQVTVSS | high polyreactivity
26 | QVQLVESGGGLVQAGGRLRLSSADYGITIELYVMGWYRQAPGKERELVAAINRGTSTYYADSVKGRFTISRDNAKNTVYLQMNSLKPEDTAVYYCAAESGVVALYRYDYWGQGTQVTVSS | low polyreactivity
27 | HVQLVESGGGLVQAGGSLRLSCAASGRTFGIYAMGWYRHAPGKQRELVAAISKIGTRTYYADSVKGRFTISRDNAKNTVYLQMNSLNPEDTAVYYCAAYPVDAVYQAYRYPYYDEMDYWGQGTQVTVSS | low polyreactivity
28 | QVQLVESGGGLVLAGGSLRLSCAASGRIFLRNAMGWYRQAPGKVRELVATITSRGGSTYYADSVKGRFTISRDKAKNTVYLQMNSLKPEDTAVYYCAADPRRYRGFGYVYGGFYYWGQGTQVTVSS | low polyreactivity
29 | QVQLVESGGGLVQAGGSLRLSCAASGSIIRRYAMGWYRPAPGKERELVAAISSGGSTYYADSVKGRFTISRDNAKNTVYLQMNSLKPEDTAVYYCAALYYQITTTHYLHLHYDYWGEGTQVTVSS | low polyreactivity
30 | QVQLVESGGGLVQAGGSLRLSCAASGNILTTYAMGWYRQAPGKERELVAAIRWSDGSTYYADSVKGRFTISRDNAKNTVYLQMNSLKPEDTAVYYCAADYHYPTWQGGYHYGYWGQGTQVTVSS | high polyreactivity
31 | QVQLVESGGGLVQAGGSLRLSCAASGFIIQGNAMGRYRQAPGKERELVAAISSSVSTYYADSVKGRFTISRDNAKNTVYLQMNSLKPEDTAVYYCNAGFPLSLWLGDYWGQGTQVTVSS | low polyreactivity
32 | QVQLGESGGGLVQAGGSLSLSCAASGITLHNYAMGWYRQAPGKERELVAAISRRGGNTYYADSVKGRFTISRDNAKNTVYLQMNSLIPEDTAVSYCAAYYHGRMDYWGQGTQVTVSS | high polyreactivity
33 | QVQLVESGGGLVQAGGSLRLSCAASGRTFRWNAMGWYRQAPGKERELVAAITKSGGSTYYADSVKGRFTISRDNAKNTVYLQMNSLIPEDTAVYYCNAEPPLYPWAYPSDSYNFWGQGTQVTVSS | low polyreactivity
34 | QVQLVESGGGLVQAGGRLRLSCAASGSNFDIYALGWYRQAPGKERELVAAIRGRGGSTYYADSVKGRFTISRDNAKNTVYLQMNSLKPEDTAVYYCAARNSYGNWRYYYWGQGTQVTVSS | high polyreactivity
35 | QVQLVESGGGLVQAGGSLRLSCAASGITFIGYAMGWYRQAPGKERELVASITSGANTNYADSVKGRFTISRDNAKNTVYLQMNSLKPEDTAVYYCAAPEHGTYANILGEPLDYWGQGTQVTVSS | low polyreactivity
36 | QVQLVESGGGLVQAGGSLRLSCAASGSIFIYYAMGWYRQPPGKERELVAAISYSDGDTYYADSVKGRFTISRDNAKNTVYLQMNSLKPEDTAVYYCAAEVTLSYDVGWEDYWGQGTQVTVSS | high polyreactivity
37 | QVQLVESGGGLVQAGGSLRLSCAASGRIFGRYAMGWYRQAPGKERELVAAITGRGASTYYADSVKGRFTISRDNAKNTVYLQMNSLKPEDTAVYYCNAFRGAQGTDAYDWGQGTQVTVSS | low polyreactivity
38 | QVQLVESGGGLVQAGGSLRLSCAASGFTFRRYAMGWYRQAPGKERELVAAISRGSSTYYADSVKGRFTISRDNAKNTVYLQMNSLKPEDTAVYYCAADWEQLRGTMDYWGQGTQVTVSS | high polyreactivity
39 | QVQLVESGGGLVQAGGSLSLICAASGSTILYNTMGWYRQAPGKERELVATITSRGDRTYYADSVKGRFTISRDNAKNTVYLQMNSLKPDDTAVYYCNAYGGNYPQSYRYYYWGQGTQVTVSS | low polyreactivity
40 | QVQLVESGGGLVQAGGSLRLSCAASGFTFGSYTMGWYRQAPGKERELVAAITGRGGSTYYADSVKARFTISRDNAKNTVYLQMNSLKPVDTAVYYCAGRRGTTYVGYDYWGQGTQVTVSS | high polyreactivity
41 | QVQLVESGGGLVQAGGSLRLSCAASGFIFRSYDMGWYRQAPGKERELVAAITRGGRTYYADSVKGRFTISRDNAKNTVYLQMNSLKPEDTAVYYCAARGTHVADGYYWGQGTQVTVSS | high polyreactivity
42 | QVQLVESGGGLVQAGGSLRLSCAASGRIFKTYTMGWYRQAPGKERELVAVITSGGGTYYADSVKGRFTISRDNAKNTVYLQMNSLKPEDTAVYYCAARGLESPYGYWGQGTQVTVSS | low polyreactivity
43 | QVQLVESGGGLVQAGGSLRLSCAASGIIFRYYAMGWYRQAPGKERELVAAISSSTGNTYYADSVKGRFTISRDNAKNTVYLQMNSLKPEDTAVYYCAARTRQISIVGYNYWGQGTQVTVSS | high polyreactivity
